PMC10743564, “Acceleration of Protein Degradation by 20S Proteasome-Binding Peptides Generated by In Vitro Artificial Evolution” (International Journal of Molecular Sciences, 2023)
Where no end group is shown, it is not given here. BAED = biotinylated photoreactive group derived from Sulfo-SBED

Assays:
26S holoenzyme = 26S holoenzyme (Homo sapiens, UniProt P25787+P60900); test: Photoaffinity labeling of 26S holoenzyme; type: binding; details: after UV irradiation
Procedure: (§1) The reaction mixture was exposed to UV light (365 nm) for 30 min on ice, and proteins were separated by SDS-PAGE, transferred onto a polyvinylidene difluoride membrane (ATTO Co., Ltd., Tokyo, Japan), and probed with horseradish peroxidase-conjugated streptavidin (Cytiva, Danaher Co., Washington, DC, USA). Chemiluminescence images were obtained using an ImageQuant LAS-4000 instrument (Cytiva). Isoelectric focusing for 2D-PAGE was performed using a DiscRun AE-6541 apparatus (ATTO Co., Ltd.) according to the manufacturer’s protocol. To identify the subunits of the 20S CP by LC-MS analysis, all bands visible following CBB staining were excised, dehydrated with acetonitrile for 10 min, and centrifuged in vacuo to dryness. Dried samples were placed in trypsin solution, and hydrolysis was carried out at 37 °C for 16 h. Reaction products were recovered using 0.1% formic acid and analyzed by LC-MS-IT-TOF (Shimadzu Corporation, Kyoto, Japan) and Mascot Version 2.4 (Matrix Science, London, UK).

human 20S proteasome = human 20S proteasome (Homo sapiens, UniProt P25787+P60900); test: Photoaffinity labeling of 20S CP; type: binding; details: UV 365 nm, 2D-PAGE, LC-MS identification
Procedure: After the reaction, the product was purified by reversed-phase HPLC, and molecular weight was confirmed by mass spectrometry, as described above.
as §1

U251 cells = test: Cell growth inhibition assay (CellTiter-Glo); type: cell-based, human
Procedure: The U251 cell line was kindly provided by Prof. Koji Kawakami (Kyoto University). RPMI8226 and SH-SY5Y cell lines were obtained from RIKEN BRC Cell Bank (Chiba, Japan). U251 and RPMI8226 cells were grown and maintained in RPMI1640 medium (Nacalai Tesque Inc.) supplemented with 10% fetal bovine serum, 100 units/mL penicillin, and 100 μg/mL streptomycin at 37 °C in 5% CO2. SH-SY5Y cells were grown and maintained in DMEM medium (Nacalai Tesque Inc.) supplemented with 10% fetal bovine serum, 100 units/mL penicillin, and 100 μg/mL streptomycin at 37 °C in 5% CO2.
U251, RPMI8226, or SH-SY5Y cells were seeded in triplicate wells in a 96-well plate at a density of 5 × 10^3 cells/well and incubated with various concentrations (0.1–100 µM) of inhibitory compounds dissolved in DMSO for 24 or 48 h. The amount of intracellular ATP was determined by CellTiter-Glo Luminescent Cell Viability Assay (Promega Co.) according to the manufacturer’s protocol. Intracellular proteasome activity was measured using the Proteasome-Glo Assay reagent (Promega Co.) according to the manufacturer’s protocol.

[1] = molecular target: T1, intracellular proteasomes of U251 cells (Homo sapiens, UniProt P25787+P60900); test: Intracellular proteasome CT-L activity (Proteasome-Glo) in U251 cells; type: cell-based
T1 construct: endogenous in cells; host or cells: U251, RPMI8226, SH-SY5Y
Procedure: Intracellular proteasome activity was measured using the Proteasome-Glo Assay reagent (Promega Co.) according to the manufacturer’s protocol [46].

Compound	Photoaffinity labeling of 26S holoenzyme (in words) (26S holoenzyme)	Photoaffinity-labeled subunits of 20S CP (human 20S proteasome)	Cell death (in words) (U251 cells)	Effect on CT-L activity of intracellular proteasomes (in words) [1]
BAED-20S-BP1(5-12): photoreactive biotinylated peptide: 20S-BP1(5-12) with N-terminal BAED group, made with Sulfo-SBED ({BAED}-SRLRHWWR)	no detectable labeling	α1 and β4 subunits		
CC(C)C[C@H](NC(=O)[C@H](Cc1ccccc1)NC(=O)c1cnccn1)B(O)O [bortezomib]			induced cancer cell death	did not increase CT-L activity to the same degree
